These results are taken from patent publication CN110498854A (UNIV ARMY MEDICAL, dated 2019).

Assay [1] concerns the target T1, 金黄色葡萄球菌肠毒素B (SEB) (Staphylococcus aureus (ATCC BAA-1556), UniProt P01552 28-266).
In assay [2] the target is T1, 金黄色葡萄球菌肠毒素B (SEB). The assay is described as follows: ELISA, antigen coated. A general note: An ELISA detects its analyte on a solid surface through an enzyme-linked reagent.

T1 sequence (P01552 28-266, tags left off): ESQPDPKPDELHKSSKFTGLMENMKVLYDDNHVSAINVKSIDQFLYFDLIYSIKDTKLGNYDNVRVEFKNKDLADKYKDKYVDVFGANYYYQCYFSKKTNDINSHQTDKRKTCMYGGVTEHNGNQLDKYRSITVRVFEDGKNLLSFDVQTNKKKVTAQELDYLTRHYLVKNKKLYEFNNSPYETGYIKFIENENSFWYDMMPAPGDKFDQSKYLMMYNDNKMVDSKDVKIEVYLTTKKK

B1: 全人源SEB单克隆抗体M0313 (antibody, V domains shown)
VH: EVQLVQSGGGLVQPGGSLRLSCAASGFTLSNYGMSWVRQSPGKGLEWVSGISGGSGSTCYADFVKGRFTISRDKSKNTLSLEMNSLRAEDRAVYYCAKDREYYNSGYYYFPYQYAMDVWGQGTTVTVSS
VL: QSVLTQPPSASGTPGQRVTISCSGGRPNIGGNSVYWYQQFPGTSPKLLIYTNDQRPSGVPDRFSGSKSGTSASLAISGLRSEDEADYYCAAWDDSLSAYVFGAGTKVTVL
Consider B1, for which, in assay [1], the affinity, expressed as Kd, was 3.22 nM; the koff is 0.00292 s⁻¹; the kon turned out to be 908000 M⁻¹ s⁻¹. For the same molecule, it took 7.3 ng/mL to reach a half-maximal effect in assay [2] (EC50).

By Kd is commonly meant the concentration at which binding is half-saturated. High values mean weaker binding, low ones tighter binding. As usually defined, the koff is the rate constant with which the complex falls apart. As usually defined, the kon is a measure of how fast the partners come together. Lower therefore signals slower complex formation. A word on the EC50: it is the concentration giving half of the maximal effect. Read a low EC50 as higher potency in that assay.
